Measured values as given in patent US11319551B2, “Methods and compositions for PPO herbicide tolerance in plants” (Monsanto Technology LLC, priority 2015, dated 2022).

Test system: hemG knockout E. coli strain
Type: cell-based

Molecule	sensitivity to PPO herbicides (negative control) (all of the PPO herbicides)	growth rate of hemG knockout E. coli strain in presence of PPO herbicide (acifluorfen, flumioxazin, lactofen, or fomesafen, saturating amount)
A. tuberculatus PPO: wild-type protoporphyrinogen oxidase from Amaranthus tuberculatus (WH), SEQ ID NO:80, negative control expressed in E. coli (protein, listed as Amaranthus tuberculatus) MGNISEREEPTSAKRVAVVGAGVSGLAAAYKLKSHGLSVTLFEADSRAGGKLKTVKKDGFIWDEGANTMTESEAEVSSLIDDLGLREKQQLPISQNKRYIARDGLPVLLPSNPAALLTSNILSAKSKLQIMLEPFLWRKHNATELSDEHVQESVGEFFERHFGKEFVDYVIDPFVAGTCGGDPQSLSMHHTFPEVWNIEKRFGSVFAGLIQSTLLSKKEKGGENASIKKPRVRGSFSFQGGMQTLVDTMCKQLGEDELKLQCEVLSLSYNQKGIPSLGNWSVSSMSNNTSEDQSYDAVVVTAPIRNVKEMKIMKFGNPFSLDFIPEVTYVPLSVMITAFKKDKVKRPLEGFGVLIPSKEQHNGLKTLGTLFSSMMFPDRAPSDMCLFTTFVGGSRNRKLANASTDELKQIVSSDLQQLLGTEDEPSFVNHLFWSNAFPLYGHNYDSVLRAIDKMEKDLPGFFYAGNHKGGLSVGKAMASGCKAAELVISYLDSHIYVKMDEKTA	sensitive to all of the PPO herbicides	–
R1 N311: microbial HemY protoporphyrinogen oxidase, SEQ ID NO:16 (protein, listed as Bacillus atrophaeus) MSDGKKHLVIIGGGITGLASAFYMEKEIREKNLPLSVTLVEASPRVGGKIQTARKDGYIIERGPDSFLERKKSAPELVEDLGLEHLLVNNATGQSYVLVNETLHPMPKGAVMGIPTKIAPFMSTGLFSFSGKARAAMDFVLPASKPKEDQSLGEFFRRRVGDEVVENLIEPLLSGIYAGDIDRLSLMSTFPQFYQTEQKHRSLILGMKKTRPQGSGQRLTAKKQGQFQTLKTGLQTLVEELENQLKLTKVYKGTKVTNISRGEKGCSIALDNGMTLDADAAIVTSPHKSAAGMFPDLPAVSQLKDMHSTSVANVALGFPQEAVQMEHEGTGFVISRNSDFSITACTWTNKKWPHSAPEGKTLLRAYVGKAGDESIVELSDNEIIKIVLEDLKKVMKIKGEPEMTCVTRWNESMPQYHVGHKQRIKKVREALAASYPGVYMTGASFEGVGIPDCIDQGKSAVSDVLAYLFG	–	did not grow
